How the values were obtained:
[1] = system: U87MG human glioblastoma xenograft tumors; assay: Optical imaging of U87MG xenograft mice 15 h post injection (tumour to background ratio); type: in vivo, mouse; details: IVIS Lumina XR, 15 h post i.v. injection of 10 nmol; for Uptake in the tumor (in words): U87MG xenograft mice, n = 5
Experimental: All animal experiments were performed under a protocol approved by the Animal Research Committee of the Danish Ministry of Justice (2012-15-2934-00064). 5 ×10^6 U87MG cells were suspended in 200 ul PBS and inoculated in both flanks of 6 weeks old nude NMRI female mice (24–28 g; Taconic Europe, Lille Skensved, Denmark). All mice were housed in groups with 12 h light/dark cycle and food and water was available ad libitum. When the tumours reached approx. 500 mm^3 in size the mice were enrolled in the optical imaging protocol.
(§1) 10 nmol of ICG-Glu-Glu-AE105 or ICG were administered to 5 mice each via tail vein injections. 15 h post injection the mice were anaesthetized with 2% isoflurane a full-body optical scan recorded using the acquisition mode outlined above.
After imaging with IVIS Lumina XR the anesthetized mice were moved to a surgical table and real-time tumor imaging with a Fluobeam®800 NIR-camera was performed (Fluoptics, Grenoble, France). The camera was connected to a standard laptop to allow imaging, adjustments of camera functions and recording of images and video sequences. Fluobeam®800 works with a 800 nm excitation laser optimised for ICG imaging.
The TBR values were calculated as tumor-signal divided by background-signal by drawing a ROI over each tumor and place the background ROI in an area with constant background signal. Images from IVIS Lumina XR were processed in the software Living Image, while the images from Fluobeam®800 was processed in ImageJ.

nude NMRI mice = assay: Observation of adverse effects in imaged mice; type: in vivo, mouse; details: 10 nmol i.v., nude NMRI mice with U87MG xenografts, n = 5 per group
Experimental: as §1

[2] = Plasma stability of ICG-Glu-Glu-AE105 by HPLC; type: in vitro ADME; details: mouse plasma 150 μl, 5 μg in DMSO, 37°C, acetonitrile precipitation, HPLC absorbance area at 780 nm
Experimental: ICG-AE105 (5 μg in DMSO) was added to 150 μl mouse plasma and the solution was incubated at 37°C for either 0, 1, 5 or 30 minutes. After incubation, acetonitrile (200 μl) was added followed by centrifugation at 3500 rpm for 4 minutes. The supernatant was collected, diluted and passed through a 0.45 μm filter. The filtered solution was analyzed on a Dionex UltiMate 300 HPLC using an Onyx Monolithic column (Phenomenex, 50x4.6 mm) and with a flow of 1.5 ml/min. The HPLC mobile phase was 0.1% TFA in H2O:MeCN 90:10 (A) and 0.1% TFA in H2O:MeCN 10:90 (B) and the gradient program: 0–2 min 10% B, 2–20 min 10–100% B, 20–21 100% B, 21–23 min 100–10%B, 23–30 min 10% B.
Each plasma sample was analyzed by HPLC and the absorbance area at 780 nm was calculated. This value was compared to the standard sample and the plasma sample at 0 min to calculated the percentage of intact ICG-AE105 recovered in the supernatant (see Table 1).

[3] = In vitro comparison of fluorescence intensity of ICG and conjugated probe; type: physicochemical
Experimental: The UV-vis absorption spectra were recorded on a Perkin-Elmer Lambda 1050 UV/vis/NIR spectrometer double beam spectrometer using the HBC solvent as baseline. The spectra were recorded in 1 cm path length cuvettes with ICG and ICG-AE105 present in the 10–50 μM range. Excitation and emission spectra and lifetimes were measured using FluoroTime 300 (PicoQuant, Berlin, Germany) system. The spectra were measured through excitation at 725 nm using a Xe-lamp excitation source. The excitation and emission measurements were measured in 1 cm cuvettes at 90° with respect to the excitation light. In the fluorescence measurements the absorbance of the samples were below 0.1 at the maximum of the lowest energy absorption band to avoid inner filter effects. After each fluorescence measurement the absorption spectra were recorded in order to verify that no photobleaching of the sample had occurred during the fluorescence measurement. All excitation and fluorescence spectra were corrected for the wavelength-dependent sensitivity of the detection from 500–900 nm.

uPAR = uPAR (Homo sapiens, UniProt Q03405); assay: Surface plasmon resonance solution competition of the uPA•uPAR interaction (Biacore3000); details: indirect solution competition for uPA binding, purified uPAR, non-linear regression, read-out: IC50 as competitive inhibitor of the uPA•uPAR interaction
Experimental: The IC50-value for ICG-Glu-GLU-AE105 as competitive inhibitor of the uPA•uPAR interaction was measured by surface plasmon resonance in a Biacore3000 assay platform as previously published. Subsequent fitting to the binding isotherms by non-linear regression provided the IC50-value.

[4] = molecular target: T1, human uPAR in U87MG tumor tissue sections (Homo sapiens, UniProt Q03405); assay: Ex vivo fluorescent imaging and uPAR immunohistochemistry of tumor sections; details: 4 μm paraffin tumor sections, Odyssey scanner 800 nm, antibody R2 against uPAR
T1 construct: Ex Vivo histology and fluorescence images of s.c. U87MG tumor tissue sections; from tissue; host or cells: s.c. U87MG human glioblastoma xenograft tumors grown in mice
Experimental: Tissue was formalin fixed in 4% formaldehyde in 24 h and then embedded in paraffin. For all stainings a 4 μm slice tissue were used. Before any staining the sliced tissue were imaged with an Odyssey scanner (LI-COR Biosciences, Lincoln, Nebraska) at 800 nm.
The tissue was incubated for one hour at 60° before being deparaffinized. Thereafter, tissue was pre-treated with proteinase K (Dako, Glostrup, Denmark) for 6 min. The staining was performed with the Dako ARK kit, with the antibody R2 [24] against uPAR.

[5] = molecular target: Urokinase-type plasminogen activator receptor (uPAR) (human) (UniProt Q03405)
Urokinase-type plasminogen activator receptor (uPAR) (human), sequence (Q03405 23-305): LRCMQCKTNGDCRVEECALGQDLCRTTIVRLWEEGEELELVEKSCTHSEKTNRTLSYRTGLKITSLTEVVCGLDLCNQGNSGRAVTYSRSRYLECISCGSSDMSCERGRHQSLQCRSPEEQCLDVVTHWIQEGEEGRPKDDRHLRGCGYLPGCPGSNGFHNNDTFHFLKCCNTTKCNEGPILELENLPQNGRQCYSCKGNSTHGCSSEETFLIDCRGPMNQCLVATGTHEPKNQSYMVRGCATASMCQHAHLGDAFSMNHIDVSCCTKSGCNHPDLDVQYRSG

T1 sequence (Q03405 23-335): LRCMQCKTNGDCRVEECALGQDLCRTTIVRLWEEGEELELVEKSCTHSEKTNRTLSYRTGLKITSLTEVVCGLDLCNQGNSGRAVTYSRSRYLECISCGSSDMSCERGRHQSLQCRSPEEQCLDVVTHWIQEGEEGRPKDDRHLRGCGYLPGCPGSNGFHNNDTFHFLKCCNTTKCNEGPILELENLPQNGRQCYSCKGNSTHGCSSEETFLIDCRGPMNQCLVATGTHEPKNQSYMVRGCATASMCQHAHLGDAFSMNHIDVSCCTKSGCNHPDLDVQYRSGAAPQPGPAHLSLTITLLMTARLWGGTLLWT

Compound	Tumour to background ratio (TBR) ([1]; U87MG s.c. xenograft mice, n = 5 mice (n = 10 tumors), mean)	Uptake in the tumor (in words) [1]	Adverse effects observed in mice (nude NMRI mice)	Intact ICG-AE105 recovered from supernatant (%) Compared to standard ([2]; 0 min incubation)	Intact ICG-AE105 recovered from supernatant (%) Compared to standard ([2]; 1 min incubation)	Intact ICG-AE105 recovered from supernatant (%) Compared to standard ([2]; 1 min incubation, listed as ICG-AE105)	remaining at 1 min, 33 µg/mL ([2]; 1 min incubation, read-out: Intact ICG-AE105 recovered from supernatant (%) Compared to plasma sample at 0 min)	Intact ICG-AE105 recovered from supernatant (%) Compared to plasma sample at 0 min ([2]; 5 min incubation)	Intact ICG-AE105 recovered from supernatant (%) Compared to standard ([2]; 5 min incubation)	Intact ICG-AE105 recovered from supernatant (%) Compared to standard ([2]; 5 min incubation, listed as ICG-AE105)	Intact ICG-AE105 recovered from supernatant (%) Compared to plasma sample at 0 min ([2]; 30 min incubation)	Intact ICG-AE105 recovered from supernatant (%) Compared to standard ([2]; 30 min incubation)	Intact ICG-AE105 recovered from supernatant (%) Compared to standard ([2]; 30 min incubation, listed as ICG-AE105)	Decrease in fluorescence intensity of conjugated probe compared with ICG [3]	IC50 (uPAR)	Co-localization of probe fluorescence with uPAR immunohistochemistry staining [4]	mean decrease of the max fluorescence signal of the xenograft tumours when 6.7 nmol uPA is injected together with 10 nmol probe, against probe alone [5]
CC1(C)C(/C=C/C=C/C=C/C=C2\N(CCCCS(=O)(=O)O)c3ccc4ccccc4c3C2(C)C)=[N+](CCCCS(=O)(=O)[O-])c2ccc3ccccc3c21 [ICG, indocyanine green]	1.04±0.04	No uptake	No adverse effects	–	–	–	–	–	–	–	–	–	–	–	–	–	–
CC(C)C[C@H](NC(=O)[C@H](Cc1ccc(O)cc1)NC(=O)[C@@H](CCCNC(=N)N)NC(=O)[C@@H](CO)NC(=O)[C@H](Cc1ccccc1)NC(=O)[C@H](CC1CCCCC1)NC(=O)[C@H](CC(=O)O)NC(=O)[C@H](CCC(=O)O)NC(=O)[C@H](CCC(=O)O)NC(=O)CCCCC[N+]1=C(C=CC=CC=CC=C2N(CCCCS(=O)(=O)[O-])c3ccc4ccccc4c3C2(C)C)C(C)(C)c2c1ccc1ccccc21)C(=O)N[C@@H](Cc1c[nH]c2ccccc12)C(=O)N[C@@H](CO)C(=O)O [ICG-Glu-Glu-AE105]	–	high uptake	No adverse effects	97,2%	92.3%	92,3%	95%	89,3%	86.7%	86,7%	84,1%	81.7%	81,7%	2 fold	134 nM	co-localization of the uPAR staining and the fluorescent probe signal was observed	–
ICG-Glu-Glu-AE105 (peptide)	–	–	–	–	–	–	–	–	–	–	–	–	–	–	–	–	46.8%

Reference: publication PMC4734687, “Peptide-Based Optical uPAR Imaging for Surgery: In Vivo Testing of ICG-Glu-Glu-AE105” (PLoS ONE, 2016)
